Read-outs that look alike come from different tables or passages of the source.

The values below come from patent publication US20210238302A1, “HIGH AFFINITY MONOCLONAL ANTIBODIES (MABS) AGAINST CELL SURFACE EXPRESSED HUMAN CARBONIC ANHYDRASE IX (HCA-IX), AND USES THEREOF” (NATIONAL RESEARCH COUNCIL OF CANADA, priority 2018, published 2021).

One assay addresses rhCA-IX ECD Dimer (Homo sapiens, UniProt Q16790). On the procedure:
(§1) SPR experiments were carried out by capturing the CA-IX mAbs from the CM with an anti-mouse Fc antibody immobilized on the chip surface, after which rhCA-IX EDC mixture, or rhCA-IX EDC monomer or dimer were flowed over the mAb surface.

In a further assay the target is rhCA-IX ECD Monomer (Homo sapiens, UniProt Q16790). The method, then: as §1
[1] abbreviates: hybridoma-derived mAb, rhCA-IX ECD dimer.

B1: 9B6: mouse IgG2b monoclonal antibody inhibiting hCA-IX catalytic activity; SEQ ID NO.14 and 18; hybridoma-derived and recombinant (SEQ ID NO. 24 and 25) (antibody, V domains shown)
VL: DIVLTQSPSSLAVSLGQRATISCKASQSVDYDGNSYMNWFQQKPGQPPKLLIYEASSLESGIPARISGSGSGTDFTLNIHPVEEEDAATYYCQQSYEGPYTFGGGTKLEIK
VH: QVQLQQPGAELVKPGASVKLSCKASGYIFTTKWINWVKQRPGQGLEWIGNIYPGSSNTYYNEKFKNKATLTVDKSSNTAHLQLSSLTSEDSAVYYCARGIANWGQGTPVTVSA
B1: the off rate entry is on record as “extremely slow” with rhCA-IX ECD Dimer (Hybridoma-derived, rhCA-IX ECD dimer); “slow” with rhCA-IX ECD Monomer (Hybridoma-derived); “slow” with rhCA-IX ECD Monomer (Recombinantly expressed, mIgG2b). For the same molecule, the ka with rhCA-IX ECD Dimer (setting [1]) turned out to be 1.33E+05. Besides, the kd with rhCA-IX ECD Dimer (setting [1]) stood at 4.17E−18. For the same molecule, the binding kinetics entry in the assay with rhCA-IX ECD Dimer (recombinant and hybridoma-derived mAb, rhCA-IX ECD dimer (FIG. 12)) is “poor”.
